Consider 79 sequences from the supplement of paper PMC10126150.

± gives the standard deviation of the averaged measurements.
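Note: ATP exposure 15 min at 22 °C before imaging.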

The series concerns ATP. Description: switch fluorescence ratio, 500 uM ATP over buffer (Cy3 cluster intensity, sum of 5 cycles each) (fold (ratio)); higher = stronger signal-on switching upon ATP binding; sequences stand for … in TCGTCGGCAGCGTCAGATGTGTATAAGAGACAGTTTTTTTTTTTTTTTTTTTTTTTTT…TC. Conditions: aptamer strand: ATP DNA aptamer (quencher-CACCTGGGGGAGTATTGCGGAGGAAGG + anchor), 100 nM annealed; ATP concentration: 500 uM. The essentials: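 Values give the fluorescence ratio for each switch-domain sequence, averaged from per-cluster ratios of summed target-cycle to summed buffer-cycle Cy3 intensity. The Cy3-labelled switching-strand clusters sat on a modified Illumina MiSeq flow-cell, were annealed to 100 nM quencher-labelled ATP aptamer, and were imaged in selection buffer, then after 15 min with 500 uM ATP at 22 °C. Five cycles ran with NaOH stripping and re-annealing between them, and clusters outside 100-1000 RFU were excluded.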
Take ATGGCAGGCG: the switch fluorescence ratio came to 0.995 ± 0.04.
On to TGGAGCGAGG, for which the switch fluorescence ratio came out at 1.02 ± 0.00015.
With ACAGTAGGA, the switch fluorescence ratio worked out at 1.06 ± 0.013.
In the case of CGATGTGTGT, the switch fluorescence ratio turned out to be 0.991 ± 0.035.
For TGTGTTTTTA the value was 1.006 ± 0.0016; for TTTTTCGCGG, 1.01 ± 0.015.
For ACAGCGTGTG the value was 1.03 ± 0.011.
For TATATATAGA the value was 1 ± 0.041; for TGCCGCCGGG, 1.03 ± 0.011; for GAATCGGCAT, 1.02 ± 0.039.
Take TGGGGCACCC: the switch fluorescence ratio came to 0.985 ± 0.01.
In the case of TATATTAAGA it was 1.01 ± 0.016.
Consider TTGGTAAGGG, for which the switch fluorescence ratio was found to be 1.03 ± 0.011.
As for TGTCGAAAGA, the switch fluorescence ratio is 0.999 ± 0.013.
In the case of CCTAATGAA it was 1.2 ± 0.28; in that of AAATGGTCT, 1.016 ± 0.01.
For TAAGGAAGTT the value was 1.009 ± 0.0096; for TCTCGGTGAG, 0.99 ± 0.051.
For GGTTTTGCTT the value was 0.96 ± 0.034; for ACAAAACATG, 1.16 ± 0.15; for GGTATTGTTG, 1 ± 0.024.
ACTGTATATT: the switch fluorescence ratio was found to be 1.18 ± 0.023.
Regarding TAGGGGGTTA, the switch fluorescence ratio was 0.992 ± 0.046.
On to TTTTTCGGTG, for which the switch fluorescence ratio amounted to 1.04 ± 0.11.
In the case of CACGGTGCGG it was 1.01 ± 0.015; in that of TTTTCTACTT, 0.999 ± 0.027; in that of AGGATAACCG, 1.028 ± 0.0012.
In the case of CTTGCGGGCG it was 0.982 ± 0.012; in that of GATTCAGACA, 0.963 ± 0.015; in that of TAAAGATAGC, 1.02 ± 0.064.
In the case of TTTAAAGAAA it was 1.02 ± 0.016; in that of ACATTATGGA, 1.035 ± 0.0081; in that of TTCGGCGGGC, 1 ± 0.027.
On to TTCAGTGTGG, for which the switch fluorescence ratio worked out at 0.971 ± 0.022.
Take CATGAATATT: the switch fluorescence ratio is 0.99 ± 0.037.
In the case of CCTTGGATTG it was 0.9851 ± 0.0018; in that of GCCATGGCGT, 1.02 ± 0.031.
For TGGGGAGTGT the value was 0.9849 ± 0.0076; for TTGCGCAATT, 1.51 ± 0.47; for CCCAGTATGG, 1.001 ± 0.0082.
Take AATACCATTT: the switch fluorescence ratio was 1.01 ± 0.035.
For TTTTGGGTTC the value was 1.03 ± 0.07; for GGGGGCAAAT, 0.9935 ± 0.0068; for TAGGGAATGT, 1 ± 0.019.
In the case of AGAAGTTGGG it was 0.993 ± 0.02; in that of TGATAAAGGT, 0.997 ± 0.015; in that of GTTATTGGAG, 0.999 ± 0.026.
Consider CTGAATGGGG, for which the switch fluorescence ratio was 0.971 ± 0.01.
For TATAGAGGTT the value was 0.992 ± 0.015; for TTTGTCTGGT, 0.992 ± 0.017.
Regarding AGTTCATTT, the switch fluorescence ratio stood at 0.999 ± 0.019.
Consider CTTATTAAGC, for which the switch fluorescence ratio worked out at 1.05 ± 0.011.
Consider TCATGGTCTG, for which the switch fluorescence ratio was determined as 1 ± 0.012.
With GCCGGGGGTG, the switch fluorescence ratio came to 1.04 ± 0.023.
In the case of TTGCGTAGTT it was 1.01 ± 0.029; in that of GGTTGTCTCG, 0.951 ± 0.021; in that of TTTCGTGGTC, 1.02 ± 0.015.
For TCTAAGGTTA, the switch fluorescence ratio stood at 1 ± 0.02.
As to TGTTTTAGGA, the switch fluorescence ratio was 0.993 ± 0.015.
For AGGGTTAGGA the value was 1.02 ± 0.033; for GGGGGGTAAC, 1 ± 0.019.
For GCTCATTATT the value was 1.014 ± 0.0015; for TCGGTTAATA, 1.018 ± 0.0054; for CCGTGTTGCT, 1.12 ± 0.061.
On to ACCGGCTGCG, for which the switch fluorescence ratio was determined as 1.08 ± 0.08.
TTCGTTTTGC: the switch fluorescence ratio amounted to 0.999 ± 0.035.
With TTGGATTGGG, the switch fluorescence ratio amounted to 1.02 ± 0.064.
Take TTGGCAGTCG: the switch fluorescence ratio was determined as 0.998 ± 0.02.
In the case of GCTCGATTGG it was 0.9766 ± 0.0057; in that of AAACCGGAAC, 2.26 ± 0.1; in that of CGGGCAAGGT, 1.038 ± 0.01.
On to AATTTTACGA, for which the switch fluorescence ratio is 1.04 ± 0.024.
In the case of TTACCTAGAG it was 1.04 ± 0.038; in that of TACGAGAGCC, 1.04 ± 0.037; in that of GGCAGTTGGG, 0.9868 ± 0.007.
Regarding CGAATATGAT, the switch fluorescence ratio came to 1.02 ± 0.058.
For TTTCCAGTTC the value was 1.37 ± 0.57; for ACGGTAACTC, 1.27 ± 0.03; for GATGGAAAGG, 0.998 ± 0.029.
